# Assay results from paper PMC3744803, “A continuous fluorescence assay for the characterization of Nudix hydrolases” (Analytical Biochemistry, 2013).
# B1: NudD (Escherichia coli K-12) (protein)
# chain: MFLRQEDFATVVRSTPLVSLDFIVENSRGEFLLGKRTNRPAQGYWFVPGGRVQKDETLEAAFERLTMAELGLRLPITAGQFYGVWQHFYDDNFSGTDFTTHYVVLGFRFRVSEEELLLPDEQHDDYRWLTSDALLASDNVHANSRAYFLAEKRTGVPGL
# B2: DR_1025 (Deinococcus radiodurans R1 = ATCC 13939 = DSM 20539) (protein)
# chain: MEHDERTHVPVELRAAGVVLLNERGDILLVQEKGIPGHPEKAGLWHIPSGAVEDGENPQDAAVREACEETGLRVRPVKFLGAYLGRFPDGVLILRHVWLAEPEPGQTLAPAFTDEIAEASFVSREDFAQLYAAGQIRMYQTKLFYADALREKGFPALPV
# B3: MM_0920 (Methanosarcina mazei Go1) (protein)
# chain: MNLEKPYIISVYALIRNEKGEFLLLRRSENSRTNAGKWDLPGGKVNPDESLKEGVAREVWEETGITMVPGDIAGQVNFELTEKKVIAIVFDGGYVVADVKLSYEHIEYSWVSLEKILGMETLPAYFRDFFERFDRENKKPSKLFI
# B4: MutT (Escherichia coli K-12) (protein)
# chain: MKKLQIAVGIIRNENNEIFITRRAADAHMANKLEFPGGKIEMGETPEQAVVRELQEEVGITPQHFSLFEKLEYEFPDRHITLWFWLVERWEGEPWGKEGQPGEWMSLVGLNADDFPPANEPVIAKLKRL
# How the values were obtained:
# [1] = substrate: Nc1nc2c(ncn2[C@@H]2O[C@H](COP(=O)(O)OP(=O)(O)O[C@H]3O[C@H](CO)[C@@H](O)[C@H](O)[C@@H]3O)[C@@H](O)[C@H]2O)c(=O)[nH]1; experiment: discontinuous Fiske-SubbaRow (malachite green phosphate) assay; format: biochemical, Escherichia coli; conditions: pH 8.5, 37 °C, 1 mM MgCl2, APase coupling
# Source text: discontinuous Fiske-SubbaRow (malachite green phosphate) assay on NudD
# [2] = substrate: Nc1nc2c([nH]c(=O)n2[C@@H]2O[C@H](CO[P@@](=O)(O)O[P@@](=O)(O)OP(=O)(O)O)[C@@H](O)[C@H]2O)c(=O)[nH]1; experiment: continuous fluorescence Pi-sensor (PBP-MDCC) assay; format: biochemical, Deinococcus radiodurans; conditions: pH 7.6, 37 °C, 10 mM Tris-HCl, 1 mM MgCl2, no coupling phosphatase
# Source text: (§1) continuous fluorescence Pi-sensor (PBP-MDCC) assay on DR_1025
# [3] = substrate: Nc1nc2c([nH]c(=O)n2[C@H]2C[C@H](O)[C@@H](COP(=O)(O)OP(=O)(O)OP(=O)(O)O)O2)c(=O)[nH]1; experiment: continuous fluorescence Pi-sensor (PBP-MDCC) assay; format: biochemical, Deinococcus radiodurans; conditions: pH 7.6, 37 °C, 10 mM Tris-HCl, 1 mM MgCl2, no coupling phosphatase
# Source text: as §1
# [4] = substrate: Nc1ncnc2c1[nH]c(=O)n2[C@H]1C[C@H](O)[C@@H](COP(=O)(O)OP(=O)(O)OP(=O)(O)O)O1; experiment: continuous fluorescence Pi-sensor (PBP-MDCC) assay; format: biochemical, Methanosarcina mazei; conditions: pH 7.6, 37 °C, 10 mM Tris-HCl, 1 mM MgCl2, PPase coupling
# Source text: (§2) continuous fluorescence Pi-sensor (PBP-MDCC) assay on MM_0920
# [5] = substrate: Nc1nc2c([nH]c(=O)n2[C@H]2C[C@H](O)[C@@H](COP(=O)(O)OP(=O)(O)OP(=O)(O)O)O2)c(=O)[nH]1; experiment: continuous fluorescence Pi-sensor (PBP-MDCC) assay; format: biochemical, Methanosarcina mazei; conditions: pH 7.6, 37 °C, 10 mM Tris-HCl, 1 mM MgCl2, PPase coupling
# Source text: as §2
# [6] = substrate: Nc1nc2c([nH]c(=O)n2[C@@H]2O[C@H](CO[P@@](=O)(O)O[P@@](=O)(O)OP(=O)(O)O)[C@@H](O)[C@H]2O)c(=O)[nH]1; experiment: continuous fluorescence Pi-sensor (PBP-MDCC) assay; format: biochemical, Escherichia coli; conditions: pH 7.6, 37 °C, 10 mM Tris-HCl, 1 mM MgCl2, PPase coupling
# Source text: (§3) continuous fluorescence Pi-sensor (PBP-MDCC) assay on MutT
# [7] = substrate: Nc1nc2c([nH]c(=O)n2[C@H]2C[C@H](O)[C@@H](COP(=O)(O)OP(=O)(O)OP(=O)(O)O)O2)c(=O)[nH]1; experiment: continuous fluorescence Pi-sensor (PBP-MDCC) assay; format: biochemical, Escherichia coli; conditions: pH 7.6, 37 °C, 10 mM Tris-HCl, 1 mM MgCl2, PPase coupling, alpha-beta cleavage
# Source text: as §3
protein,measurement,setting,value
B1,Km,[1],220 ± 60 µM
B2,Km,[2],22 ± 5 µM
same,kcat,[2],0.13 ± 0.01 s⁻¹
same,Km,[3],26 ± 1 µM
same,kcat,[3],0.18 ± 0.01 s⁻¹
same,kcat/Km,[3],4400 ± 100 M⁻¹ s⁻¹
B3,Km,[4],12 ± 3 µM
same,kcat,[4],0.00096 ± 8e-05 s⁻¹
same,kcat/Km,[4],78 ± 12 M⁻¹ s⁻¹
same,Km,[5],13 ± 3 µM
same,kcat,[5],(1.9 ± 0.2) × 10^−3 s^−1
B4,Km,[6],0.9 ± 0.2 µM
same,kcat,[6],11.2 ± 0.9 s⁻¹
same,Km,[7],0.28 ± 0.03 µM
